Data taken from patent US20220226425A1 (RHYTHM PHARMACEUTICALS, published 2022).
Bridges are numbered along the chain shown (N, C = ends). [ ]: non-standard residue; d: D form. Pen = CC(C)(S)[C@H](N)C(=O)O; hCys = N[C@@H](CCS)C(=O)O; Dap = NC[C@H](N)C(=O)O

What was measured:
Test in all cases: cell-based or functional assay
melanocortin 5 receptor = melanocortin 5 receptor (human, UniProt P33032 1-325)
melanocortin 1 receptor = melanocortin 1 receptor (human, UniProt Q01726 1-317)
melanocortin-4 receptor = melanocortin-4 receptor (human, UniProt P32245 1-332)
melanocortin-4 receptor, sequence (P32245 whole entry): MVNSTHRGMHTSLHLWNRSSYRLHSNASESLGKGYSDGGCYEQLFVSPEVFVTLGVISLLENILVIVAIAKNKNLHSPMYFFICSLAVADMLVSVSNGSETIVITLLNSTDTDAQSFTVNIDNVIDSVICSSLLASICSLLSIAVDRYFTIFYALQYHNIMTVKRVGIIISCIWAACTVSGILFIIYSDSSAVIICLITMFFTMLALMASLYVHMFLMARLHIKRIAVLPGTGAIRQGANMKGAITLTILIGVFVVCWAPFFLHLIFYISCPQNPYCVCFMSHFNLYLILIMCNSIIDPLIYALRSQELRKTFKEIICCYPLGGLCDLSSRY

melanocortin 3 receptor = melanocortin 3 receptor (human, UniProt P41968 1-323)
melanocortin 3 receptor, sequence (P41968 whole entry): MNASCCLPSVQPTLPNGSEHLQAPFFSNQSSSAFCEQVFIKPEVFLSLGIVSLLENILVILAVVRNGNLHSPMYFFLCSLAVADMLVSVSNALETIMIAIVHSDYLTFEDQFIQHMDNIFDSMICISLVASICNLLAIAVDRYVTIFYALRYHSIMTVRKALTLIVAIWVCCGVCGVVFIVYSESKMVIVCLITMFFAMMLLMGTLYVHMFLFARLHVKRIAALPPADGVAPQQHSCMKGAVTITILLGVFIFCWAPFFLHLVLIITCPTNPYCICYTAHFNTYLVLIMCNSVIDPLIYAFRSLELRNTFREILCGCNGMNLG

melanocortin 5 receptor, sequence (P33032 whole entry): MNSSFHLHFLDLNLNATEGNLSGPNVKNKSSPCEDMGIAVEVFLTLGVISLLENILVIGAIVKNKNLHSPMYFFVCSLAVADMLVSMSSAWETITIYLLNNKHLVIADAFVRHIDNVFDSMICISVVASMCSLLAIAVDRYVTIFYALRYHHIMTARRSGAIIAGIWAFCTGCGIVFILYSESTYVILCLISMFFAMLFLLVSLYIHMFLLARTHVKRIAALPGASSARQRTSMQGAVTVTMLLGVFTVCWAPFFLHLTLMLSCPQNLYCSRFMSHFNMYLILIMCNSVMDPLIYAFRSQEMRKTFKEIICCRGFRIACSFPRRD
melanocortin 1 receptor, sequence (Q01726 whole entry): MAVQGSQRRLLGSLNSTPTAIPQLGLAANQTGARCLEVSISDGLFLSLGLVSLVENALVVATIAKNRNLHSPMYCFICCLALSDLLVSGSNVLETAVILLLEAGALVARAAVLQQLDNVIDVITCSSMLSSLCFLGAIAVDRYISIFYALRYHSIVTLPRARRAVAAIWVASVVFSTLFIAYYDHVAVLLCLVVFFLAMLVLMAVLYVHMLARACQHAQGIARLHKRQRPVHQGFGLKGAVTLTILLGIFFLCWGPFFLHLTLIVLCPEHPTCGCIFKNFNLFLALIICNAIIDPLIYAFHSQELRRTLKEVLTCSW

| Binder | EC-50 (nM), cAMP accumulation (melanocortin 5 receptor) [nM] | EC-50 (nM), cAMP accumulation (melanocortin 1 receptor) [nM] | EC-50 (nM), cAMP accumulation (melanocortin-4 receptor) [nM] | EC-50 (nM), cAMP accumulation (melanocortin 3 receptor) [nM] | Selectivity Ratio MC4R/MC3R (of EC-50 values) (melanocortin 3 receptor) |
| --- | --- | --- | --- | --- | --- |
| Ac-R[hCys]N[dF]RW[Pen]-NH2 (disulfide 2-7) [001554C, Ac-Arg-(hCys-Asn-D-Phe-Arg-Trp-Pen)-NH2] | 735 | 235 | 1.6 | > 3000 | > 1870 |
| Ac-R[hCys]Q[dF]RW[Pen]-NH2 (disulfide 2-7) [001555C, Ac-Arg-(hCys-Gln-D-Phe-Arg-Trp-Pen)-NH2] | 124 | 47.5 | 0.19 | 0.52 | 2.68 |

Next, values leading:

| EC-50 (nM), cAMP accumulation (melanocortin 5 receptor) [nM] | EC-50 (nM), cAMP accumulation (melanocortin 1 receptor) [nM] | EC-50 (nM), cAMP accumulation (melanocortin-4 receptor) [nM] | EC-50 (nM), cAMP accumulation (melanocortin 3 receptor) [nM] | Selectivity Ratio MC4R/MC3R (of EC-50 values) (melanocortin 3 receptor) | Binder |
| --- | --- | --- | --- | --- | --- |
| 1700 | 229 | 1.86 | > 3000 | > 1620 | Ac-R[hCys]S[dF]RW[Pen]-NH2 (disulfide 2-7; SMILES CC(=O)N[C@@H](CCCNC(=N)N)C(=O)N[C@H]1CCSSC(C)(C)[C@@H](C(N)=O)NC(=O)[C@H](Cc2c[nH]c3ccccc23)NC(=O)[C@H](CCCNC(=N)N)NC(=O)[C@@H](Cc2ccccc2)NC(=O)[C@H](CO)NC1=O) [001556C, Ac-Arg-(hCys-Ser-D-Phe-Arg-Trp-Pen)-NH2] |
| 67.3 | 23.6 | 0.66 | 1.16 | 1.75 | Ac-REQ[dF]RW[Dap]-NH2 (lactam 2-7; SMILES CC(=O)N[C@@H](CCCNC(=N)N)C(=O)N[C@H]1CCC(=O)NC[C@@H](C(N)=O)NC(=O)[C@H](Cc2c[nH]c3ccccc23)NC(=O)[C@H](CCCNC(=N)N)NC(=O)[C@@H](Cc2ccccc2)NC(=O)[C@H](CCC(N)=O)NC1=O) [001576C, Ac-Arg-(Glu-Gln-D-Phe-Arg-Trp-Dpr)-NH2] |
| 2050 | 516 | 1.11 | > 3000 | > 2710 | Ac-R[hCys]T[dF]RW[Pen]-NH2 (disulfide 2-7; SMILES CC(=O)N[C@@H](CCCNC(=N)N)C(=O)N[C@H]1CCSSC(C)(C)[C@@H](C(N)=O)NC(=O)[C@H](Cc2c[nH]c3ccccc23)NC(=O)[C@H](CCCNC(=N)N)NC(=O)[C@@H](Cc2ccccc2)NC(=O)[C@H]([C@@H](C)O)NC1=O) [001574C, Ac-Arg-(hCys-Thr-D-Phe-Arg-Trp-Pen)-NH2] |
